# Reference: the DeepSol protein solubility set
# Experiment: soluble on expression in E. coli; label from the status in PepcDB or PDB records
row,Sequence,soluble on expression in E. coli
1,STEESMYTQIIKELPREGSSDVLVIKNEHVKKSDIWPSGGEMVVKDLTVKYMDDGNAVLENISFSISPGQRVGLLGRTGSGKSTLLSAFLRMLNIKGDIEIDGVSWNSVTLQEWRKAFGVITQKVFIFSGTFRQNLDPNGKWKDEEIWKVADEVGLKSVIEQFPGQLNFTLVDGGYVLSHGHKQLMCLARSVLSKAKIILLDQPSAHLDPITYQVIRRVLKQAFAGCTVILCEHRIEAMLDCQRFLVIEESNVWQYDSLQALLSEKSIFQQAISSSEKMRFFQGRHSSKHKPRTQITALKEETEEEVQETRL,not soluble
2,STFRERLLHKNLQEHFSNQDLVFLLLTPSIITESCSTHRLEHSLYKPQKGLFHRVPLVVANLGMSEQLGYKTVSGSCMSTGFSRAVQTHSSKFFEEDGSLKEVHKINEMYASLQEELKSICKKVEDSEQAVDKLVKDVNRLKREIEKRRGAQIQAAREKNIQKDPQENIFLCQALRTFFPNSEFLHSCVMSLKNRHVSKSSCNYNHHLDVVDNLTLMVEHTDIPEASPASTPQIIKHKALDLDDRWQFKRSRLLDTQDKRSKADTGSSNQDKASKMSSPETDEEIEKMKGFGEYSRSPTF,not soluble
3,STHSELMEKFLTDYLNDLQGRNDDDASGTWDFYGSSVCEPDDESGYDVLANPPGPEDQDDDDDAYSDVFEFEFSETPLLPCYNIQVSVAQGPRNWLLLSDVLKKLKMSSRIFRCNFPNVEIVTIAEAEFYRQVSASLLFSCSKDLEAFNPESKELLDLVEFTNEIQTLLGSSVEWLHPSDLASDNYW,soluble
4,STQACPQPKTLDEFTIIQNLQPQYQFRDYFIATCKQGYQLIEGNQVLHSFTAVCQDDGTWHRAMPRCKIKDCGQPRNLPNGDFRYTTTMGVNTYKARIQYYCHEPYYKMQTRAGSRESEQGVYTCTAQGIWKNEQKGEKIPRCLPVCGKPVNPVEQRQR,soluble
5,STQEQTPQICVVGSGPAGFYTAQHLLKHHSRAHVDIYEKQLVPFGLVRFGVAPDHPEVKNVINTFTQTARSDRCAFYGNVEVGRDVTVQELQDAYHAVVLSYGAEDHQALDIPGEELPGVFSARAFVGWYNGLPENRELAPDLSCDTAVILGQGNVALDVARILLTPPDHLEKTDITEAALGALRQSRVKTVWIVGRRGPLQVAFTIKELREMIQLPGTRPMLDPADFLGLQDRIKEAARPRKRLMELLLRTATEKPGVEEAARRASASRAWGLRFFRSPQQVLPSPDGRRAAGIRLAVTRLEGIGEATRAVPTGDVEDLPCGLVLSSIGYKSRPIDPSVPFDPKLGVVPNMEGRVVDVPGLYCSGWVKRGPTGVITTTMTDSFLTGQILLQDLKAGHLPSGPRPGSAFIKALLDSRGVWPVSFSDWEKLDAEEVSRGQASGKPREKLLDPQEMLRLLGH,soluble
6,STQFINKLYASYLREKAYLTAQKHWEKDEIDEQSYQIIQRKYDELLPEAHEILLNMDSLSEVRDTLNKYLTQHQQALLIAGEDSVPFSFKYKDQLGAALYYPDNEGNFIVLVMSRNVYGAEIKE,not soluble
7,STTLTHRARRTEISKNSEKKMESEEDSNWEKSPDNEDSGDSKDIRLTLMEEVLLLGLKDKEGYTSFWNDCISSGLRGGILIELAMRGRIYLEPPTMRKKRLLDRKVLLKSDSPTGDVLLDETLKHIKATEPTETVQTWIELLTGETWNPFKLQYQLRNVRERIAKNLVEKGILTTEKQNFLLFDMTTHPVTNTTEKQRLVKKLQDSVLERWVNDPQRMDKRTLALLVLAHSSDVLENVFSSLTDDKYDVAMNRAKDLVELDPEVEGTKPSATEMIWAVLAAFNKS,soluble
8,SVGTSCIPGMAIPHNPLDSCRWYVSTRTCGVGPRLATQEMKARCCRQLEAIPAYCRCEAVRILMDGVVTSSGQHEGRLLQDLPGCPRQVQRAFAPKLVTEVECNLATIHGGPFCLSLLGAGE,soluble
9,SYVQDYRSPFIASVSDQHGVVYITENKNKTVVIPCLGSISNLNVSLCARYPEKRFVPDGNRISWDSKKGFTIPSYMISYAGMVFCEAKINDESYQSIMYIVVVVGYRIYDVVLSPSHGIELSVGEKLVLNCTARTELNVGIDFNWEYPSSKHQHKKLVNRDLKTQSGSEMKKFLSTLTIDGVTRSDQGLYTCAASSGLMTKKNSTFVRVHEKPFVAFGSG,soluble
10,TADNNSMPHGAVSSYAKLVQNQTPEDILEEFPEIIPLQQRPNTRSSETSNDESGETCFSGHDEEQIKLMNENCIVLDWDDNAIGAGTKKVCHLMENIEKGLLHRAFSVFIFNEQGELLLQQRATEKITFPDLWTNTCCSHPLCIDDELGLKGKLDDKIKGAITAAVRKLDHELGIPEDETKTRGKFHFLNRIHYMAPSNEPWGEHEIDYILFYKINAKENLTVNPNVNEVRDFKWVSPNDLKTMFADPSYKFTPWFKIICENYLFNWWEQLDDLSEVENDRQIHRML,soluble
11,TAPIAITCFTRGLDIRKEKADVLCPGGCPLEEFSVYGNIVYASVSSICGAAVHRGVISNSGGPVRVYSLPGRENYSSVDANGIQSQMLSRWSASFTVTLE,soluble
12,TATRVRPREYALRYPYMQVNRPGMVSWLVFDLDHANALAWDDAGLPAPNLMVRNRKSGHSQLFYAVPSVCTTENARTKPIQYMKAIYAAFAARLDADVDYHGGPVAKTPGHPWWETTEFHSHVYELGELASAVELTVKPWATGPKLDQVSHSRHCILFEQLRYFAYSIVNRERELGSFESFMRSLDAYAYNHNSFLKQGFSENLPLSSIRATVKSVGRWTWDRYTGDRRCHRGAMQLDGSLSLTERQSLAAKRTNELRH,not soluble
13,TCSQPNNFPAEIPLYKQSFKNWAGDIKVDDVWTCAPRSADEVVKVANWAKDNGYKVRARGMMHNWSPLTLAAGVSCPAVVLLDTTRYLTAMSIDASGPVAKVTAQAGITMEALLTGLEKAGLGVTAAPAPGDLTLGGVLAINGHGTAIPAKGERRLAGASYGSISNLVLSLTAVVYDKASGAYALRKFARNDPQIAPLLAHVGRSLIVEATLQAAPNQRLRCQSWFNIPYGEMFAAAGSGGRTFASYLDSAGRVEAIWFPFTSNPWLKVWTVTPNKPLFSRQTDKPFNYPFSDNLPDEVTDLANKILSLGDGKLTPAFGKAQFAAASAGLVATASWDLWGWSKNLLLYVKPTTLRVTANGYAVLTRRENVQRVLNEFVTFYQARVQAYQQQGRYPMNGPVEIRVTGLDDPSEAALSGGVAPALSAIRPRPDHPEWNVAVWLDILTLPGTPYANQFYREIEQWIEANFNGSYAAVRPEWSKGWGYTDQAAWADSAMLQTTIPNAFRAGQPAAANWDAAKAALAAYDPYRLFSSPLLDSLGL,soluble
14,TDKVRQNEKQKRSKALAQTQVNKRLLNEHGLNTPPMMKDEADQFVVSPTNWAGIIDQALAPPRTRKSYQKSMVSISGTKAVIETRSSKN,not soluble
15,TEQTNVLVLCAGGGTSGLLANALNKAAEEYHVPVKAAAGGYGAHMDIMKEYQLIILAPQVASNYEDIKQDTDRLGIKLAKTQGAEYIKLTRDGQAALDFVQQQFEN,not soluble
16,TERFRLTLAQLNPTVGDLAGNAALARRAWDEARAAGSDMLALTEMFVTGYQTQDLVLRRAFVEEAMATIERLAADCAEGPAIGIGGPCLEDGRLMNAYWVLEGGRVSARVFKHHLPNAEVFDEKRVFSSGEVHGPCRVGPLRIGIPICEDSWHPDVCETLAETGAEILLVPNGSPYHREKLDVRVNLMVTRVVETGLPLVYLNMVGGQDDQVFDGASFVLNPHGRLMAQLPAFEEALVHVDFE,not soluble
17,TGKKAILRLSKRAMHLEWKLVKEIIFLGTSGFVMSVTNGFVQIVCNATLQRYGGDIYVGIMTVINSVREIVTMPVTGLTAASQPVIGYNYGAGCYQRVKSA,not soluble
18,TIKRMECFDISHTMGSQTVASCVVFDENGPLKSDYRRFNIEGITGGDDYAGMEQALVKRYDKPLPIEKIPDIIFIDGGKGQLNRALQVFEKLTVAWDKHKPLLIGVAKGAERKAGLETLIIGRLKKEIHLPIDSPALHLIQHIRDESHHHAISGHRKKRQKA,not soluble
19,TKDFEWSSTINAAYQKDEIVELANGKQDDISNAWFIGESINVFYGTASDGLWQESDAAEMAKFNANGHKFEAGMVKPVDQDGNYIIDSNDRIILGNKNPKWVLGWSNTFNYKGLELGIELNGRFGYMVDTGGEGQYGMYNQREISYWTPDNTGADYQKPIYSTAGGDAYSSLLGFKDASFIKIRNISLGYNFNSKALKNIGISSLKLYAQAKNIGNLYSSVDFMDLDLGTTYYNRGFTFGLQVGF,not soluble
20,TKDWNLDLTLNMSHNKNKVTKLVEEGRAQSAMDVVVQGSYADQVLAVGYPMGAFHGYEYAGIIQDQARIDELNAYAKSKGQSYYDGNSLKPGHLEIKDLNGDGIINYNDRVIIGNPDPDLFGGLTANLSYKQFSLFANFGYQIGGLKIYNKTLQNLPGQLTGLIDYGLNDRWSDTNKNAKYPALYIGDGVPRLTDHELFNASFFRLQEVRLTYNLPLNKVIKGQLFVSATNLFTLTSYPGTDPATVNSNSNYGGNYETSTYPGFRSFSAGLKINL,not soluble
21,TPGDRTGTSKCRKAGCVYFGTPENKGFCTLCFIEY,soluble
22,TPLSLTLDHWSEIRSRAHNLSVEIKKGPWRTFCASEWPTFDVGWPPEGTFDLTVIFEVKAIVFQDGPGSHPDQQPYITVWQDLVQNSPPWIK,soluble
23,TPMRSPIIWINGPFGVGKTHTAHTLHERLPGSFVFEPEEMGQALRKLTPGFSGDPQEHPMWIPLMLDALQYASREAAGPLIVPVSISDTARHRRLMSGLKDRGLSVHHFTLIAPLNVVLERLRRDGQPQVNVGTVEDRLNELRGEQFQTHIDTAGLGTQQVAEQIAAQVGLTLAPPPQGALHW,soluble
24,TPVSEKQLAEVVANTVTPLMKAQSVPGMAVAVIYQGKPHYYTFGKADIAANKPVTPQTLFELGSISKTFTGVLGGDAIARGEISLDDPVTRYWPQLTGKQWQGIRMLDLATYTAGGLPLQVPDEVTDNASLLRFYQNWQPQWKPGTTRLYANASIGLFGALAVKPSGMPYEQAMTTRVLKPLKLDHTWINVPKAEEAHYAWGYRDGKAVRAVRVSPGMLDAQAYGVKTNVQDMANWVMANMAPENVADASLKQGIALAQSRYWRIGSMYQGLGWEMLNWPVEANTVVEGSDSKVALAPLPVAEVNPPAPPVKASWVHKTGSTGGFGSYVAFIPEKQIGIVMLANTSYPNPARVEAAYHILEALQ,soluble
25,TQEDVVVTLSHQGYVKYQPLSEYEAQRRGGKGKSAARIKEEDFIDRLLVANTHDHILCFSSRGRVYSMKVYQLPEATRGARGRPIVNLLPLEQDERITAILPVTEFEEGVKVFMATANGTVKKTVLTEFNRLRTAGKVAIKLVDGDELIGVDLTSGEDEVMLFSAEGKVVRFKESSVRAMGCNTTGVRGIRLGEGDKVVSLIVPRGDGAILTATQNGYGKRTAVAEYPTKSRATKGVISIKVTERNGLVVGAVQVDDCDQIMMITDAGTLVRTRVSEISIVGRNTQGVILIRTAEDENVVGLQRVAE,soluble
26,TQQPQQDEMPSPTFLTQVKESLSSYWESAKTAAQNLYEKTYLPAVDEKLRDLYSKSTAAMSTYTGIFTDQVLSVLKGEE,soluble
27,TSGTLYLVPTPIGNLQDMTFRAVATLKEVDFICAEDTRNTGLLLKHFDIATKQISFHEHNAYEKIPDLIDLLISGRSLAQVSDAGMPSISDPGHDLVKAAIDSDIAVVALPGA,not soluble
28,TSPVNWDVTGTFSMNRTYMKKLPYNGRDKNRVQGGLVWDAKSGTYVETGGLAEGERIGGRWGYKYLGVYDTDEEAAKAPVDTKVSGSKMNKKKVAGDAIWADLDNNGVIDDKDITFIGWANPDKKGALINNLSYKNFSLRLVVDFALGHSIANIWRCRANANARNAIITTTDVTNGNIWWQTGDAATAKYPRYDVASDWDNGYRNHMRTIAYAGMNSNGNADNTAYYSKGDYLCFREVSLGYELPRSVCSKMKVKGVSLNAGVTNIGYITAFDGLNPEQYDGQETGEYFLPIQFNFGVRLTF,not soluble
